Measurements taken from publication PMC7849366 (Genes & Development, 2021).

Biological target: full-length recombinant MYC-KEAP1 (human, UniProt Q14145 1-624)
Assay: pull-down

Sequence of full-length recombinant MYC-KEAP1 (Q14145 whole entry): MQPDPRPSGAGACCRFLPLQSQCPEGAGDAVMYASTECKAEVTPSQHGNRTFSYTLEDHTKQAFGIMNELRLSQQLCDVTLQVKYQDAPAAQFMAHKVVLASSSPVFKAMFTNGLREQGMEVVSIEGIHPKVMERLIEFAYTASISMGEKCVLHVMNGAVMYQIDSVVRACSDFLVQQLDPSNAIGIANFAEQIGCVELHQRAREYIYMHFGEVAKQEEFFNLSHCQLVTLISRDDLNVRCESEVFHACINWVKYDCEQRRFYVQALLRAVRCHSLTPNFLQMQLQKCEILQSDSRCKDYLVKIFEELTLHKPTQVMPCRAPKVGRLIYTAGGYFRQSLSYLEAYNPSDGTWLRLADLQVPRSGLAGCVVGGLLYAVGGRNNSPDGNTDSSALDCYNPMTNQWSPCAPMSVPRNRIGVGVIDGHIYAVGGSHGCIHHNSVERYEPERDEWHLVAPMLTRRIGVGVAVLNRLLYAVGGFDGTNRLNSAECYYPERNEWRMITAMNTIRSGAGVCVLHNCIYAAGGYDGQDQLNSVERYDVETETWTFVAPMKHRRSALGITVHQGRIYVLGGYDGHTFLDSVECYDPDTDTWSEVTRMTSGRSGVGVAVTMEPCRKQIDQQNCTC

Kd: 2.87 nM
B1: full-length recombinant GST-ATDC (natural protein)
chain: MEAADASRSNGSSPEARDARSPSGPSGSLENGTKADGKDAKTTNGHGGEAAEGKSLGSALKPGEGRSALFAGNEWRRPIIQFVESGDDKNSNYFSMDSMEGKRSPYAGLQLGAAKKPPVTFAEKGELRKSIFSESRKPTVSIMEPGETRRNSYPRADTGLFSRSKSGSEEVLCDSCIGNKQKAVKSCLVCQASFCELHLKPHLEGAAFRDHQLLEPIRDFEARKCPVHGKTMELFCQTDQTCICYLCMFQEHKNHSTVTVEEAKAEKETELSLQKEQLQLKIIEIEDEAEKWQKEKDRIKSFTTNEKAILEQNFRDLVRDLEKQKEEVRAALEQREQDAVDQVKVIMDALDERAKVLHEDKQTREQLHSISDSVLFLQEFGALMSNYSLPPPLPTYHVLLEGEGLGQSLGNFKDDLLNVCMRHVEKMCKADLSRNFIERNHMENGGDHRYVNNYTNSFGGEWSAPDTMKRYSMYLTPKGGVRTSYQPSSPGRFTKETTQKNFNNLYGTKGNYTSRVWEYSSSIQNSDNDLPVVQGSSSFSLKGYPSLMRSQSPKAQPQTWKSGKQTMLSHYRPFYVNKGNGIGSNEAP
